Biological target: T1, S100B (Homo sapiens, UniProt P04271)
T1 construct: purchased Sigma-Aldrich
T1 sequence (P04271 2-92 limits assumed): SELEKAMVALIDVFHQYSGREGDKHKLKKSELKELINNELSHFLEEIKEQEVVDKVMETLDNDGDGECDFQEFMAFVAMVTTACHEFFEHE
Test: Tryptophan fluorescence quenching binding studies
Procedure: The tryptophan fluorescence of 5.0 μM Synb1-ELP-TRTK, 5.0 μM Synb1-ELP-GGC and 5.0 μM TRTK12 were measured using an Aminco Bowman Series 2 fluorescent spectrophotometer with and Excitation wavelength of 295 nm and an Emission wavelength of 350 nm in 25 mM TrisHCL and 0.1 mM CaCl2 at 12° C. (to avoid aggregation of ELP) or in a solution of containing 25 mM TrisHCL, 0.1 mM CaCl2 and 1 mM EGTA at 12° C. S100B was titrated from 100 nM up to 3.0 μM into the various peptide solutions and changes in tryptophan fluorescence were recorded into an Excel file and graphs produced. A Fluorescence % was plotted against free S100B concentration using GraphPad Prism software. A Fluorescence % was calculated as follows: [(Maximum fluorescence−Observed fluorescence)/(Maximum fluorescence−Minimum Fluorescence)]×100%. Where the maximum fluorescence is the fluorescence of 5.0 μM Synb1-ELP-TRTK or 5.0 μM TRTK12 before titration of S100B and the minimum fluorescence is the fluorescence of 5.0 μM Synb1-ELP-TRTK or 5.0 μM TRTK12 fully saturated with bound S100B. […]
Alterations in the binding affinity of a peptide due to its fusion to ELP have never been studied previously. […] Fluorescent spectroscopy is a sensitive tool used to monitor changes in the local environment of tryptophan residues that occur during a protein-ligand binding event; furthermore, changes in tryptophan fluorescence can be used to calculate binding affinity (Weljie and Vogel, 2000, Bocedi et al., 2004). Previous work has shown that S100B binding reduces tryptophan fluorescence of TRTK12 and like peptides (Ivanenkov et al., 1995). The tryptophan fluorescence of 5.0 μM Synb1-ELP-TRTK and 5.0 μM Synb1-ELP-GGC were measured using a fluorescent spectrophotometer with an Excitation wavelength of 295 nm and an Emission wavelength of 350 nm in 25 mM TrisHCL and 0.1 mM CaCl2 at 12° C. At 295 nm, tryptophan emission spectrum is dominant over the weaker tyrosine and phenylalanine fluorescence (Vivian and Callis, 2001). […] W755 has very little fluorescence at 350 nm which may be due to the 150 neighboring VPGXG repeats of ELP (FIG. 12A). […]

## Synb1-ELP-TRTK: thermally responsive S100B inhibitory polypeptide: Synb1 cell penetrating peptide, elastin-like polypeptide (ELP) and TRTK12 peptide fused
  impact on S100B binding affinity compared to the TRTK12 peptide alone: 2 fold
5.0 μM peptide, 25 mM TrisHCL, 0.1 mM CaCl2, 12° C.
  Kd: 518 ± 80 nM
25 mM TrisHCL, 0.1 mM CaCl2 and 1 mM EGTA
  effect of S100B titration on tryptophan fluorescence at 350 nm with calcium depleted: no effect
